Data: patent US20240317834A1, “COMPOSITIONS AND METHODS FOR NEUROLOGICAL DISEASES” (CODA BIOTHERAPEUTICS, INC., priority 2020, published 2024)

Test system: Lenti-X 293T cells
Test: YFP fluorescence quenching anion reporter plate reader assay of engineered receptors stimulated with acetylcholine or a non-native ligand
Format: cell-based
Settings: for percent quench of YFP fluorescence, 30 nM TC-6683: TC-6683 30 nM; for percent quench of YFP fluorescence, 300 nM TC-6683: TC-6683 300 nM; for percent quench of YFP fluorescence, 3 uM TC-6683: TC-6683 3 uM; for percent quench of YFP fluorescence, 30 uM TC-6683: TC-6683 30 uM; for percent quench of YFP fluorescence, 100 uM TC-6683: TC-6683 100 uM; for percent quench of YFP fluorescence, 10 uM ach: acetylcholine 10 uM; for percent quench of YFP fluorescence, 100 uM ach: acetylcholine 100 uM; for percent quench of YFP fluorescence, 1 mM ach: acetylcholine 1 mM; for percent quench of YFP fluorescence, 3 mM ach: acetylcholine 3 mM
Method in brief: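 Lenti-X 293T cells carrying a YFP anion reporter were transiently transfected with channel DNA and assayed the next day in HEPES-buffered ECS at pH 7.2. Ligand (acetylcholine or non-native ligand) was added in NaI-substituted ECS. Percent quench was the mean of the last 10 s relative to the 15 s pre-addition baseline.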

B1: CODA342: engineered chimeric LGIC receptor, L131R in SEQ ID NO: 33 (protein)
chain: MRCSPGGVWLALAASLLHVSLQGEFQRKLYKELVKNYNPLERPVANDSQPLTVYFSLSLLQIMDVDEKNQVLTTNIWLQMSWTDHYLQWNVSEYPGVKTVRFPDGQIWKPDILLYNSADERFDATFHTNVRVNSSGHCQYLPPGIFKSSCPMDLKNFPMDVQTCKLKFGSWSYGGWSLDLQMQEADISGYIPNGEWDLVGIPGKRSERFYECCKEPYPDVTFTVTMRRRMGYYLIQMYIPSLLIVILSWISFWINMDAAPARVGLGITTVLTMTTQSSGSRASLPKVSYVKAIDIWMAVCLLFVFSALLEYAAVNFVSRQHKELLRFRRKRRHHKSPMLNLFQEDEAGEGRFNFSAYGMGPACLQAKDGISVKGANNSNTTNPPPAPSKSPEEMRKLFIQRAKKIDKISRIGFPMAFLIFNMFYWIIYKIVRREDVHNQ
modifications: synthetic sequence of chimeric LGIC
1 nM CNL001, first column
  YFP fluorescence quenching using CNL001: 23.532%
1 nM CNL001, second column
  YFP fluorescence quenching using CNL001: 26.054%
1 nM brd
  YFP fluorescence quenching using TC-5619/Bradanicline: −7.83%
3 nM brd
  YFP fluorescence quenching using TC-5619/Bradanicline: −12.89%
3 nM var, first column
  YFP fluorescence quenching using Varenicline: 0.271
3 nM var, second column
  YFP fluorescence quenching using Varenicline: −3.613
10 nM CNL001, first column
  YFP fluorescence quenching using CNL001: 43.69%
10 nM CNL001, second column
  YFP fluorescence quenching using CNL001: 54.016%
10 nM brd
  YFP fluorescence quenching using TC-5619/Bradanicline: −10.47%
30 nM brd
  YFP fluorescence quenching using TC-5619/Bradanicline: 59.48%
30 nM fac
  YFP fluorescence quenching using Facinicline: −6.2
30 nM var, first column
  YFP fluorescence quenching using Varenicline: −4.935
30 nM var, second column
  YFP fluorescence quenching using Varenicline: −4.363
50 nM CNL001, first column
  YFP fluorescence quenching using CNL001: 59.955%
50 nM CNL001, second column
  YFP fluorescence quenching using CNL001: 56.091%
50 nM abt
  YFP fluorescence quenching using ABT-126: −18.14%
100 nM CNL001, first column
  YFP fluorescence quenching using CNL001: 64.536%
100 nM CNL001, second column
  YFP fluorescence quenching using CNL001: 58.987%
100 nM CNL002
  YFP fluorescence quenching using CNL002: −17.2%
100 nM abt
  YFP fluorescence quenching using ABT-126: −18.14%
100 nM azd0328
  YFP fluorescence quenching using AZD-0328: 1.79%
100 nM brd
  YFP fluorescence quenching using TC-5619/Bradanicline: 70.19%
300 nM abt
  YFP fluorescence quenching using ABT-126: −0.81%
300 nM azd0328
  YFP fluorescence quenching using AZD-0328: 66.58%
300 nM brd
  YFP fluorescence quenching using TC-5619/Bradanicline: 75.11%
300 nM fac
  YFP fluorescence quenching using Facinicline: 76.75
300 nM var, first column
  YFP fluorescence quenching using Varenicline: 0.282
300 nM var, second column
  YFP fluorescence quenching using Varenicline: 2.32
500 nM abt
  YFP fluorescence quenching using ABT-126: 23.29%
500 nM var, first column
  YFP fluorescence quenching using Varenicline: 23.777
500 nM var, second column
  YFP fluorescence quenching using Varenicline: 18.376
1 uM CNL001, first column
  YFP fluorescence quenching using CNL001: 65.987%
1 uM CNL001, second column
  YFP fluorescence quenching using CNL001: 64.312%
1 uM CNL002
  YFP fluorescence quenching using CNL002: 8.12%
1 uM abt
  YFP fluorescence quenching using ABT-126: 45.76%
1 uM brd
  YFP fluorescence quenching using TC-5619/Bradanicline: 77.42%
1 uM tc6987
  YFP fluorescence quenching using TC-6987: 2.51
1 uM var, first column
  YFP fluorescence quenching using Varenicline: 66.17
1 uM var, second column
  YFP fluorescence quenching using Varenicline: 66.088
3 uM abt
  YFP fluorescence quenching using ABT-126: 53.03%
10 uM abt
  YFP fluorescence quenching using ABT-126: 64.08%
10 uM fac
  YFP fluorescence quenching using Facinicline: 82.16
10 uM tc6987
  YFP fluorescence quenching using TC-6987: 46.22
30 uM CNL002
  YFP fluorescence quenching using CNL002: 57.24%
30 uM abt
  YFP fluorescence quenching using ABT-126: 71.98%
30 uM azd0328
  YFP fluorescence quenching using AZD-0328: 80.55%
30 uM fac
  YFP fluorescence quenching using Facinicline: 81.71
50 uM abt
  YFP fluorescence quenching using ABT-126: 73.98%
100 uM abt
  YFP fluorescence quenching using ABT-126: 73.51%
500 uM tc6987
  YFP fluorescence quenching using TC-6987: 68.33
  percent quench of YFP fluorescence, 30 nM TC-6683: −16.26%
  percent quench of YFP fluorescence, 300 nM TC-6683: −22.45%
  percent quench of YFP fluorescence, 3 uM TC-6683: −13.48%
  percent quench of YFP fluorescence, 30 uM TC-6683: −12.68%
  percent quench of YFP fluorescence, 100 uM TC-6683: −10.33%
  percent quench of YFP fluorescence, 10 uM ach: −2.57%
  percent quench of YFP fluorescence, 100 uM ach: −3.18%
  percent quench of YFP fluorescence, 1 mM ach: 78.98%
  percent quench of YFP fluorescence, 3 mM ach: 75.75%

B2: CODA337: engineered chimeric LGIC receptor, L131N in SEQ ID NO: 33 (protein)
chain: MRCSPGGVWLALAASLLHVSLQGEFQRKLYKELVKNYNPLERPVANDSQPLTVYFSLSLLQIMDVDEKNQVLTTNIWLQMSWTDHYLQWNVSEYPGVKTVRFPDGQIWKPDILLYNSADERFDATFHTNVNVNSSGHCQYLPPGIFKSSCPMDLKNFPMDVQTCKLKFGSWSYGGWSLDLQMQEADISGYIPNGEWDLVGIPGKRSERFYECCKEPYPDVTFTVTMRRRMGYYLIQMYIPSLLIVILSWISFWINMDAAPARVGLGITTVLTMTTQSSGSRASLPKVSYVKAIDIWMAVCLLFVFSALLEYAAVNFVSRQHKELLRFRRKRRHHKSPMLNLFQEDEAGEGRFNFSAYGMGPACLQAKDGISVKGANNSNTTNPPPAPSKSPEEMRKLFIQRAKKIDKISRIGFPMAFLIFNMFYWIIYKIVRREDVHNQ
modifications: synthetic sequence of chimeric LGIC
1 nM CNL001, first column
  YFP fluorescence quenching using CNL001: 76.917%
1 nM CNL001, second column
  YFP fluorescence quenching using CNL001: 79.554%
3 nM brd
  YFP fluorescence quenching using TC-5619/Bradanicline: 71.02%
3 nM var, first column
  YFP fluorescence quenching using Varenicline: 3.093
3 nM var, second column
  YFP fluorescence quenching using Varenicline: 12.327
10 nM CNL001, first column
  YFP fluorescence quenching using CNL001: 79.479%
10 nM CNL001, second column
  YFP fluorescence quenching using CNL001: 79.506%
30 nM brd
  YFP fluorescence quenching using TC-5619/Bradanicline: 78.43%
30 nM fac
  YFP fluorescence quenching using Facinicline: 82.25
30 nM var, first column
  YFP fluorescence quenching using Varenicline: 77.097
30 nM var, second column
  YFP fluorescence quenching using Varenicline: 77.653
50 nM CNL001, first column
  YFP fluorescence quenching using CNL001: 81.465%
50 nM CNL001, second column
  YFP fluorescence quenching using CNL001: 81.297%
50 nM abt
  YFP fluorescence quenching using ABT-126: −11.64%
100 nM CNL001, first column
  YFP fluorescence quenching using CNL001: 82.619%
100 nM CNL001, second column
  YFP fluorescence quenching using CNL001: 81.722%
100 nM CNL002
  YFP fluorescence quenching using CNL002: 76.37%
100 nM abt
  YFP fluorescence quenching using ABT-126: 34.79%
100 nM azd0328
  YFP fluorescence quenching using AZD-0328: 82.1%
300 nM abt
  YFP fluorescence quenching using ABT-126: 60.08%
300 nM azd0328
  YFP fluorescence quenching using AZD-0328: 82.52%
300 nM brd
  YFP fluorescence quenching using TC-5619/Bradanicline: 77.12%
300 nM fac
  YFP fluorescence quenching using Facinicline: 83.59
300 nM var, first column
  YFP fluorescence quenching using Varenicline: 79.446
300 nM var, second column
  YFP fluorescence quenching using Varenicline: 79.998
500 nM var, first column
  YFP fluorescence quenching using Varenicline: 80.691
500 nM var, second column
  YFP fluorescence quenching using Varenicline: 80.309
1 uM CNL001, first column
  YFP fluorescence quenching using CNL001: 81.96%
1 uM CNL001, second column
  YFP fluorescence quenching using CNL001: 81.773%
1 uM CNL002
  YFP fluorescence quenching using CNL002: 80.18%
1 uM abt
  YFP fluorescence quenching using ABT-126: 65.99%
1 uM tc6987
  YFP fluorescence quenching using TC-6987: 79.06
1 uM var, first column
  YFP fluorescence quenching using Varenicline: 80.258
1 uM var, second column
  YFP fluorescence quenching using Varenicline: 79.509
10 uM tc6987
  YFP fluorescence quenching using TC-6987: 82.36
30 uM CNL002
  YFP fluorescence quenching using CNL002: 80.93%
30 uM azd0328
  YFP fluorescence quenching using AZD-0328: 82.32%
30 uM fac
  YFP fluorescence quenching using Facinicline: 82.82
500 uM tc6987
  YFP fluorescence quenching using TC-6987: 80.19
  percent quench of YFP fluorescence, 30 nM TC-6683: −11.51%
  percent quench of YFP fluorescence, 300 nM TC-6683: −13.17%
  percent quench of YFP fluorescence, 3 uM TC-6683: −5.46%
  percent quench of YFP fluorescence, 30 uM TC-6683: 8.53%
  percent quench of YFP fluorescence, 100 uM TC-6683: 14.41%
  percent quench of YFP fluorescence, 10 uM ach: 28.32%
  percent quench of YFP fluorescence, 100 uM ach: 81.8%
  percent quench of YFP fluorescence, 1 mM ach: 71.22%
  percent quench of YFP fluorescence, 3 mM ach: 73.7%
